Reference: patent US20250092426, “CAS ENDONUCLEASES AND RELATED METHODS” (Flagship Pioneering Innovations VII, LLC, published 2025)

Molecular target: T1, CasEnd-33 (synthetic construct)
T1 chain: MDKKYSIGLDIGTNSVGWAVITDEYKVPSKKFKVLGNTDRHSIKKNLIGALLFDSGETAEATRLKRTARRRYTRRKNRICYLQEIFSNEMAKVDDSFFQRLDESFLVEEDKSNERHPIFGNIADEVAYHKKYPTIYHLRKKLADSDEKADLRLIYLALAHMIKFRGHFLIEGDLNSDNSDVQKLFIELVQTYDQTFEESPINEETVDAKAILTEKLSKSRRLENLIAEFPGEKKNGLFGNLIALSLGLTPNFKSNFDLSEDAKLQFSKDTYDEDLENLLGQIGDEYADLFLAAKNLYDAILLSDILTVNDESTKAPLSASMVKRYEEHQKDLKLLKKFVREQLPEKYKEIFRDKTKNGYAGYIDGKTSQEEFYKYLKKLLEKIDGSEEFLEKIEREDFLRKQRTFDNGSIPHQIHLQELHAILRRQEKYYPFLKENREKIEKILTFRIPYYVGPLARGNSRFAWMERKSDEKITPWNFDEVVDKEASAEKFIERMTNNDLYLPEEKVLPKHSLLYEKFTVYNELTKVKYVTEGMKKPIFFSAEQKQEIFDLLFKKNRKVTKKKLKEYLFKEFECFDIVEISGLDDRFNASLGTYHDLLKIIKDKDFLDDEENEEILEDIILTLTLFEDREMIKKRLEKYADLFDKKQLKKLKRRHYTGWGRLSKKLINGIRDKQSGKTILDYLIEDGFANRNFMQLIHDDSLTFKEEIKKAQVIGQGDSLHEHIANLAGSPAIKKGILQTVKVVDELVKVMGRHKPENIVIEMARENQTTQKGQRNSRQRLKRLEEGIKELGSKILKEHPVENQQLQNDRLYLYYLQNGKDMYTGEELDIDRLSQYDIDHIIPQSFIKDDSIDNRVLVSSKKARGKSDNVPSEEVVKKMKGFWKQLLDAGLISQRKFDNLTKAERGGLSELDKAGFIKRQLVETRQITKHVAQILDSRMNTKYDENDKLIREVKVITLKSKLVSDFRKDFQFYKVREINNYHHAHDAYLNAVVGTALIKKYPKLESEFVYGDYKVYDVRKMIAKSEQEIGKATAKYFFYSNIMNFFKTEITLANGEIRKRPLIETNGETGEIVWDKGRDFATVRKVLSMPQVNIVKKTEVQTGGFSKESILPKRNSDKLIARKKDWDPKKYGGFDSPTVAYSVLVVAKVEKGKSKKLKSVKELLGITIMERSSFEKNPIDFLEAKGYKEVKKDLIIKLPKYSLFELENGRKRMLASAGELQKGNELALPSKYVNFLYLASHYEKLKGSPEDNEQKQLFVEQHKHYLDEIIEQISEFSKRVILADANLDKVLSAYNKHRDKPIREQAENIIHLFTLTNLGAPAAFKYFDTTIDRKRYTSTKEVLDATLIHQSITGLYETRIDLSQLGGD
Assay: cell_activity; +++; HEK293T; PAM not stated
Experimental: The ability of the candidate endonucleases, including endonucleases 1-38 (CasEnds 1-38) (set forth in Table 1 and SEQ ID NOS: 1-38, respectively), to mediate target nucleic acid editing was assessed utilizing a blue fluorescent protein (BFP) to green fluorescent protein (GFP) conversion assay, wherein programmed nucleotide editing of the BFP gene was measured by the expression of GFP (signifying the conversion of […] via the programmed nucleotide edit in the BFP gene). The conversion assay was conducted utilizing the reverse transcriptase-based system (as described above in Example 2) comprising a template RNA (designed to convert BFP to GFP) and a fusion protein comprising a retroviral reverse transcriptase and the individual subject Cas endonuclease. The amino acid sequence of the base portion of the fusion protein (without the individual subject Cas endonuclease) is set forth in Table 7 (SEQ ID NO: 43).
Briefly, 200 ng of plasmid DNA encoding the subject fusion protein (containing one of the subject CasEnds) and 200 ng of template RNA (in plasmid format) were added to 25 μL SF buffer containing 250,000 HEK293T BFP-expressing cells. Nucleofection was mediated utilizing program DS-150. The day of nucleofection was marked as day 0. At day 4, the cells were harvested and analyzed by flow cytometry to assess the level of BFP and GFP expression in HEK293T cells. Cells having GFP signal were defined as having undergone a successful editing event, and the percent of cells that were GFP+ on day 4 was used to determine the performance of each Cas endonuclease.

B1: BFP-to-GFP template RNA ; BFP reporter protospacer (ssRNA ; dsDNA)
RNA: GCCGAAGCACUGCACGCCGUGUUUUAGAGCUAGAAAUAGCAAGUUAAAAUAAGGCUAGUCCGUUAUCAACUUGAAAAAGUGGCACCGAGUCGGUGCACCCUGACGUACGGCGUGCAGUGCUU
DNA 1: GCCGAAGCACTGCACGCCGT
DNA 2: ACGGCGTGCAGTGCTTCGGC
With B1 the activity was ≥ 100 % of reference.
